Measured values from paper PMC4881948, “X-Ray Solution Scattering Study of Four Escherichia coli Enzymes Involved in Stationary-Phase Metabolism” (PLoS ONE, 2016).

Columns and labels:
[1] = target: the molecule itself; test: SEC + AUC; GadA at pH 7.5: Tris-HCl, 10 mM NaCl, 1 mM DTT pH 7.5; SEC on Superdex 200 10/300 GL, load 5 mg/ml; sedimentation velocity at 20°C, 0.4 mg/ml
[2] = target: the molecule itself; test: SEC + AUC; GadA at pH 4.6: 100 mM Na-acetate, 10 mM NaCl, 1 mM DTT pH 4.6; SEC on Superdex 200 10/300 GL, load 5 mg/ml; sedimentation velocity at 20°C, 0.4 mg/ml
[3] = target: the molecule itself; test: SAXS; solution scattering of the single protein, standard 50 mM Tris pH 7.5 buffer, 10°C, four concentrations 1.4-10.8 mg/ml; GadA stored in 100 mM Na-acetate, 10 mM NaCl, 1 mM DTT pH 4.6 and raised to pH 7.5 immediately before; oligomers from molecular mass, rigid-body modelling and OLIGOMER fits

Protein	stoichiometry N [1]	stoichiometry N [2]	stoichiometry N [3]
glutamate decarboxylase (GadA) from E. coli (enzyme, glutamate decarboxylase GadA, E. coli; Hexamer at pH 4.6, mixture of hexamers and dimers at pH 7.5; also called GadA low-salt) MDQKLLTDFRSELLDSRFGAKAISTIAESKRFPLHEMRDDVAFQIINDELYLDGNARQNLATFCQTWDDENVHKLMDLSINKNWIDKEEYPQSAAIDLRCVNMVADLWHAPAPKNGQAVGTNTIGSSEACMLGGMAMKWRWRKRMEAAGKPTDKPNLVCGPVQICWHKFARYWDVELREIPMRPGQLFMDPKRMIEACDENTIGVVPTFGVTYTGNYEFPQPLHDALDKFQADTGIDIDMHIDAASGGFLAPFVAPDIVWDFRLPRVKSISASGHKFGLAPLGCGWVIWRDEEALPQELVFNVDYLGGQIGTFAINFSRPAGQVIAQYYEFLRLGREGYTKVQNASYQVAAYLADEIAKLGPYEFICTGRPDEGIPAVCFKLKDGEDPGYTLYDLSERLRLRGWQVPAFTLGGEATDIVVMRIMCRRGFEMDFAELLLEDYKASLKYLSDHPKLQGIAQQNSFKHT	2	6	–
Class I fructose-1,6-bisphosphate aldolase (FbaB) from E. coli (enzyme, UniProt P0A991 1-350, looked up, Class I fructose bisphosphate aldolase FbaB, E. coli, UniProt A0A037Y4V8; 350 amino acids, calculated monomer 38.1 kDa; Decamer in solution by SAXS; also called Class I Fba; copies: 10) MTDIAQLLGKDADNLLQHRCMTIPSDQLYLPGHDYVDRVMIDNNRPPAVLRNMQTLYNTGRLAGTGYLSILPVDQGVEHSAGASFAANPLYFDPKNIVELAIEAGCNCVASTYGVLASVSRRYAHRIPFLVKLNHNETLSYPNTYDQTLYASVEQAFNMGAVAVGATIYFGSEESRRQIEEISAAFERAHELGMVTVLWAYLRNSAFKKDGVDYHVSADLTGQANHLAATIGADIVKQKMAENNGGYKAINYGYTDDRVYSKLTSENPIDLVRYQLANCYMGRAGLINSGGAAGGETDLSDAVRTAVINKRAGGMGLILGRKAFKKSMADGVKLINAVQDVYLDSKITIA	–	–	10
inorganic pyrophosphatase (PPase) from E. coli (enzyme, inorganic pyrophosphatase, E. coli; Hexamer in solution by SAXS) SLLNVPAGKDLPEDIYVVIEIPANADPIKYEIDKESGALFVDRFMSTAMFYPCNYGYINHTLSLDGDPVDVLVPTPYPLQPGSVIRCRPVGVLKMTDEAGEDAKLVAVPHSKLSKEYDHIKDVNDLPELLKAQIAHFFEHYKDLEKGKWVKVEGWENAEAAKAEIVASFERAKNK	–	–	6
